{"source": "patent US6387642", "key": {"[1]": {"biological_target": "Cdc2-cyclin B1 complex containing the catalytically inactive N133A mutant of Xenopus Cdc2 (Xenopus)", "assay": "cell-based or functional assay"}, "[2]": {"biological_target": "Purified recombinant Cdc2-cyclin B1 complex containing wild-type Xenopus Cdc2 (Xenopus)", "assay": "cell-based or functional assay"}, "[3]": {"biological_target": "Cdc2-cyclin B1 complex containing the T14A mutant of Xenopus Cdc2 (Xenopus)", "assay": "cell-based or functional assay"}, "[4]": {"biological_target": "Cdc2-cyclin B1 complex containing the Y15F mutant of Xenopus Cdc2 (Xenopus)", "assay": "cell-based or functional assay"}, "[5]": {"biological_target": "monomeric Cdc2"}, "[6]": {"biological_target": "Cdc2-cyclin B1 complex containing the T14A,Y15F double mutant of Xenopus Cdc2"}, "[7]": {"biological_target": "Cdc2-cyclin B1 complex containing the triple mutant T14A,Y15F,N133A of Xenopus Cdc2"}, "[8]": {"biological_target": "Cdc2-cyclin B1 complex containing the T161A mutant of Xenopus Cdc2"}, "[9]": {"biological_target": "Cdc2-cyclin B1 complex containing the Y15F mutant of Xenopus Cdc2"}, "[10]": {"biological_target": "Cdc2-cyclin B1 complex containing the T14A mutant of Xenopus Cdc2"}, "[11]": {"biological_target": "Purified recombinant Cdc2-cyclin B1 complex containing wild-type Xenopus Cdc2"}, "[12]": {"biological_target": "Cdc2-cyclin B1 complex containing the catalytically inactive N133A mutant of Xenopus Cdc2"}}}
{"binder": "Recombinant histidine-tagged Myt1 purified from baculovirus-infected Sf9 cells (enzyme, not shown: small tags and cut ends) MPVPGDDMGETPLTRTPIPMPAYFSQAEQSFSLKKRGRSLCYTLPPRPPVKSALPVSRIFPNKQRSWSQPRPQSVSFRSPQNKTPASKLYDQSKGDTFFKQCFKSICKLGRGSFGEVYKVQSLEDGCFYAVKRSVSPFRGESDRQRKLQEVRKHERVGEHPNCLRFVRAWEEKRMLYLQTELCAGSLQQHSEEFAGSLPPRRVWNITCDLLHGLKHLHDRNLLHLDIKPANVFISFSGVCKLGDFGLMVELDGTEGSGEAQEGDPRYMAPELLDGIFSKAADVFSLGMSLLEVACNMELPKGGDGWQQLRQGHLPTEFTSDLPPDFLKVLSAMLEPDYRRRATVDWLLSLPAIRNAERWRMVTLAQERTLGKIIAVYQFIVWLLSFVFQWLNRPVIGFLHYCGLRALPRSPPCSPFPNHLGESSFSSDWDDESLGDDVFEVPPSPLATHRNLTYHGQELIGRHSPDLLSRPSLGSTSTPRNLSPEFSMRKRSALPLTPNVSRISQDSTGKSRSPSTSHSSSGFVDAEVQRTLFLPRNLLGMFDDATEQ", "values": [{"measurement": "phosphoamino acid analysis: phosphoserine", "setting": "[1]", "result": "< 0.7", "unit": "%"}, {"measurement": "phosphoamino acid analysis: phosphothreonine", "setting": "[1]", "result": 75, "unit": "%"}, {"measurement": "phosphoamino acid analysis: phosphotyrosine", "setting": "[1]", "result": 24, "unit": "%"}, {"measurement": "phosphoamino acid analysis: share of 32P in phosphothreonine", "setting": "[2]", "result": 77, "unit": "%"}, {"measurement": "phosphoamino acid analysis: share of 32P in phosphotyrosine", "setting": "[2]", "result": 20, "unit": "%"}, {"measurement": "phosphoamino acid analysis: share of label in phosphotyrosine", "setting": "[3]", "result": 89, "unit": "%"}, {"measurement": "phosphoamino acid analysis: share of 32P in phosphothreonine", "setting": "[4]", "result": 96, "unit": "%"}, {"measurement": "phosphorylation of Cdc2 in the presence of [γ-32P]ATP", "setting": "[5]", "result": "Myt1 did not phosphorylate monomeric Cdc2"}, {"measurement": "phosphorylation and H1 kinase activity", "setting": "[6]", "result": "the T14A, Y15F double mutant of Cdc2 was neither phosphorylated nor inactivated by Myt1"}, {"measurement": "phosphorylation of Cdc2 mutant, autoradiography", "setting": "[6]", "result": "the T14A,Y15F double mutant was not a substrate for Myt1"}, {"measurement": "phosphorylation of Cdc2 mutant, autoradiography", "setting": "[7]", "result": "the triple mutant T14A,Y15F, N133A was not a substrate for Myt1"}, {"measurement": "phosphorylation of Cdc2 mutant, autoradiography", "setting": "[8]", "result": "Myt1 did not phosphorylate the T161A mutant of Cdc2 ( FIG. 2A ) on either tyrosine or threonine"}, {"measurement": "phosphorylation of Cdc2 mutant, autoradiography", "setting": "[9]", "result": "Myt1 can phosphorylate both the TI4A (Thr^14 changed to Ala) and Y15F (Tyr^15 changed to Phe) mutants of Cdc2"}, {"measurement": "reduction of Cdc2-associated histone H1 kinase activity", "setting": "[9]", "result": "a large reduction in activity (60 and 50%, respectively)"}, {"measurement": "phosphorylation of Cdc2 mutant, autoradiography", "setting": "[10]", "result": "Myt1 can phosphorylate both the TI4A (Thr^14 changed to Ala) and Y15F (Tyr^15 changed to Phe) mutants of Cdc2"}, {"measurement": "reduction of Cdc2-associated histone H1 kinase activity", "setting": "[10]", "result": "a large reduction in activity (60 and 50%, respectively)"}, {"measurement": "phosphorylation of Cdc2, compared with single mutants", "setting": "[11]", "result": "wild-type Cdc2 appears to be phosphorylated more efficiently than either single mutant"}, {"measurement": "phosphorylation of Cdc2 in the presence of [γ-32P]ATP, autoradiography", "setting": "[11]", "result": "Recombinant Myt1 efficiently phosphorylated cyclin-associated, wild-type Cdc2"}, {"measurement": "reduction of Cdc2-associated histone H1 kinase activity", "setting": "[11]", "result": "Treatment of wild-type Cdc2 with Myt1 caused a 90% reduction in its H1 kinase activity"}]}
{"binder": "Endogenous Xenopus Myt1 from interphase egg extract (protein) MPVPGDDMGETPLTRTPIPMPAYFSQAEQSFSLKKRGRSLCYTLPPRPPVKSALPVSRIFPNKQRSWSQPRPQSVSFRSPQNKTPASKLYDQSKGDTFFKQCFKSICKLGRGSFGEVYKVQSLEDGCFYAVKRSVSPFRGESDRQRKLQEVRKHERVGEHPNCLRFVRAWEEKRMLYLQTELCAGSLQQHSEEFAGSLPPRRVWNITCDLLHGLKHLHDRNLLHLDIKPANVFISFSGVCKLGDFGLMVELDGTEGSGEAQEGDPRYMAPELLDGIFSKAADVFSLGMSLLEVACNMELPKGGDGWQQLRQGHLPTEFTSDLPPDFLKVLSAMLEPDYRRRATVDWLLSLPAIRNAERWRMVTLAQERTLGKIIAVYQFIVWLLSFVFQWLNRPVIGFLHYCGLRALPRSPPCSPFPNHLGESSFSSDWDDESLGDDVFEVPPSPLATHRNLTYHGQELIGRHSPDLLSRPSLGSTSTPRNLSPEFSMRKRSALPLTPNVSRISQDSTGKSRSPSTSHSSSGFVDAEVQRTLFLPRNLLGMFDDATEQ", "values": [{"measurement": "phosphorylation of Cdc2 by immunoprecipitated Myt1", "setting": "[11]", "result": "The immunoprecipitated Myt1 protein efficiently phosphorylated Cdc2 in both assays"}, {"measurement": "share of Cdc2 shifted to its Thr14-Tyr15 doubly phosphorylated form by the Myt1-depleted extract", "setting": "[11]", "result": "the Myt1-depleted extract phosphorylated shifted only about 20% of the substrate"}, {"measurement": "share of Cdc2 shifted to its Thr14-Tyr15 doubly phosphorylated form by the control extract", "setting": "[11]", "result": "the control extract shifted ˜80% of the Cdc2 to its Thr^14-Tyr^15 doubly phosphorylated form"}, {"measurement": "tyrosine phosphorylation of Cdc2 in Myt1-depleted extract, anti-phosphotyrosine immunoblot", "setting": "[11]", "result": "The tyrosine phosphorylation of Cdc2 was dramatically reduced in the Myt1-depleted extract"}]}
{"binder": "M phase form of endogenous Xenopus Myt1 (from cytostatic factor-arrested egg extract) (protein) MPVPGDDMGETPLTRTPIPMPAYFSQAEQSFSLKKRGRSLCYTLPPRPPVKSALPVSRIFPNKQRSWSQPRPQSVSFRSPQNKTPASKLYDQSKGDTFFKQCFKSICKLGRGSFGEVYKVQSLEDGCFYAVKRSVSPFRGESDRQRKLQEVRKHERVGEHPNCLRFVRAWEEKRMLYLQTELCAGSLQQHSEEFAGSLPPRRVWNITCDLLHGLKHLHDRNLLHLDIKPANVFISFSGVCKLGDFGLMVELDGTEGSGEAQEGDPRYMAPELLDGIFSKAADVFSLGMSLLEVACNMELPKGGDGWQQLRQGHLPTEFTSDLPPDFLKVLSAMLEPDYRRRATVDWLLSLPAIRNAERWRMVTLAQERTLGKIIAVYQFIVWLLSFVFQWLNRPVIGFLHYCGLRALPRSPPCSPFPNHLGESSFSSDWDDESLGDDVFEVPPSPLATHRNLTYHGQELIGRHSPDLLSRPSLGSTSTPRNLSPEFSMRKRSALPLTPNVSRISQDSTGKSRSPSTSHSSSGFVDAEVQRTLFLPRNLLGMFDDATEQ", "values": [{"measurement": "Cdc2-specific kinase activity of immunoprecipitated Myt1, relative to the interphase form", "setting": "[12]", "result": "The M phase form was about one-fifth as active as the Myt1 protein from either type of interphase extract"}]}
